According to PMC8323898, “Examination of the roles of a conserved motif in the PriA helicase in structure-specific DNA unwinding and processivity”:

Tests used:
[1] = target: T1, PriA wild-type (Escherichia coli, UniProt P17888 1-732); experiment: EMSA; three shifted bands; 5 mM EDTA; EMSA: 0.1-10 nM PriA, 1 nM fork, 50 mM Tris-HCl pH 8.0, 0.1 mg/mL BSA, 2 mM DTT, 5 mM EDTA, 6% glycerol, 30 min on ice, 4% PAGE; conditions: protein: recombinant; tags: N-terminal His6; label: radiolabel; fork 1:2, 60 bp parental duplex, two 38-nt ssDNA arms
[2] = target: T2, PriA Trp186Ala (Escherichia coli, UniProt P17888 1-732, W186A); experiment: EMSA; same as wild type; 5 mM EDTA; EMSA: 0.1-10 nM PriA, 1 nM fork, 50 mM Tris-HCl pH 8.0, 0.1 mg/mL BSA, 2 mM DTT, 5 mM EDTA, 6% glycerol, 30 min on ice, 4% PAGE; conditions: protein: recombinant; tags: His-tag; label: radiolabel; fork 1:2, 60 bp parental duplex, two 38-nt ssDNA arms
[3] = target: T3, PriA triple variant (Escherichia coli, UniProt P17888 1-732, W186A;R187A;Y190A); experiment: as above; conditions: protein: recombinant; tags: His-tag; label: radiolabel; fork 1:2, 60 bp parental duplex, two 38-nt ssDNA arms
[4] = target: T4, PriA Tyr190Ala (Escherichia coli, UniProt P17888 1-732, Y190A); experiment: as above; conditions: protein: recombinant; tags: His-tag; label: radiolabel; fork 1:2, 60 bp parental duplex, two 38-nt ssDNA arms
[5] = target: T5, PriA Arg187Ala (Escherichia coli, UniProt P17888 1-732, R187A); experiment: as above; conditions: protein: recombinant; tags: His-tag; label: radiolabel; fork 1:2, 60 bp parental duplex, two 38-nt ssDNA arms
[6] = target: T1, PriA wild-type; experiment: EMSA; one dominant shifted species; 5 mM EDTA; EMSA: 0.1-10 nM PriA, 1 nM fork, 50 mM Tris-HCl pH 8.0, 0.1 mg/mL BSA, 2 mM DTT, 5 mM EDTA, 6% glycerol, 30 min on ice, 4% PAGE; conditions: protein: recombinant; tags: N-terminal His6; label: radiolabel; fork 1:2 (60 bp) 2:3 (33 bp nascent lagging) 1:4 (38 bp nascent leading), 5-nt lagging gap
[7] = target: T2, PriA Trp186Ala; experiment: EMSA; similar to wild type; 5 mM EDTA; EMSA: 0.1-10 nM PriA, 1 nM fork, 50 mM Tris-HCl pH 8.0, 0.1 mg/mL BSA, 2 mM DTT, 5 mM EDTA, 6% glycerol, 30 min on ice, 4% PAGE; conditions: protein: recombinant; tags: His-tag; label: radiolabel; fork 1:2 (60 bp) 2:3 (33 bp nascent lagging) 1:4 (38 bp nascent leading), 5-nt lagging gap
[8] = target: T3, PriA triple variant; experiment: as above; conditions: protein: recombinant; tags: His-tag; label: radiolabel; fork 1:2 (60 bp) 2:3 (33 bp nascent lagging) 1:4 (38 bp nascent leading), 5-nt lagging gap
[9] = target: T4, PriA Tyr190Ala; experiment: as above; conditions: protein: recombinant; tags: His-tag; label: radiolabel; fork 1:2 (60 bp) 2:3 (33 bp nascent lagging) 1:4 (38 bp nascent leading), 5-nt lagging gap
[10] = target: T5, PriA Arg187Ala; experiment: as above; conditions: protein: recombinant; tags: His-tag; label: radiolabel; fork 1:2 (60 bp) 2:3 (33 bp nascent lagging) 1:4 (38 bp nascent leading), 5-nt lagging gap

Measured: binding result

B1: two-stranded fork (1b-98/3L-98) (mixed)
DNA 1: GCAAGCCTTCTACAGGTCGACCGTCCATGGCGACTCGAGACCGCAATACGGATAAGGGCTGAGCACGCCGACGAACATTCACCACGCCAGACCACGTA
DNA 2: GACTATCTACGTCCGAGGCTCGCGCCGCAGACTCATTTAGCCCTTATCCGTATTGCGGTCTCGAGTCGCCATGGACGGTCGACCTGTAGAAGGCTTGC
binds: [1] | [2] | [3] | [4] | [5]

B2: four-stranded fork (1b-98/3L-98/b-33/11b-38) (mixed)
DNA 1: B1 DNA 1
DNA 2: B1 DNA 2
DNA 3: AGTCTGCGGCGCGAGCCTCGGACGTAGATAGTC
DNA 4: TACGTGGTCTGGCGTGGTGAATGTTCGTCGGCGTGCTC
binds: [6] | [7] | [8] | [9] | [10]
